Results from the domain aggregation screens of Martell et al. (2025).

Assay: soluble fraction after stress (log2 fold change); higher = more stays soluble; pooled small domains, quantitative proteomics
Details: stress: 75 degC
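Note: 20 min heating vs room temperature control held 20 min.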

Sequence	soluble fraction (log2)
HMLKNKSTGNINETKAILELALNHSHFKVFDNRDMTVTFKNLATQFTTMQRILVQMFFPLPAGVELIIE	0.428
HMQADEENPKYPVITDGVIQLEVLESIDKTEEWLVERLAKDGYNNVSEIFIAEYENGNLSIVT	0.0913
HMTEPIESVTTIAGRRIPYRLVRSLRARRMRMTIKESQVTVTLPRGVPLGEAERFLQQNAAWLFKQLDKP	-2.63
HMEQSGDELKTWVDQAIAAYPEKVKEYQQGKKGLLALFIGEVMKRSKGTADPKKVNQLVTEALS	-0.164
HMAIDPLLDKGYEQYDKGEFTEAVKSFNRAIEIDPKNAEAHFLRAMTYQGLALSKLAVADLEKAIV	0.0903
HMDYHTIQTGDKGDEVLRLQQALAEYGYYEGDLDGRFGQQTRRAVERFQYSHGLTADGIAGRNTLSVLYD	-0.181
HMRYLMPDLVNRRYEPVRSLLEARGIRFGNVIFEPYEGLPPGIVLRQDPPAGHPLPRRRTVSLVVSGPGGR	-2.56
HMQRAEQLPAELAAVFRAETEAWGFFERQPPGYQRVAIHWVASAKQEATRLRRLAKLIEESAAGRR	-1.61
HMQADPYTVLGVLRDVTDGELKREYRKLVREHHPDALIAQGVPQEFVDIANNKLAVINAAYERIAKQRGL	-0.154
HMANTAKVNVDTANLRETADENSKILKQLSLNDNLEVVEETGDWYKVKNSNVTGYVRKDLVTVEN	0.31
HMLPERIQTIVALIGHGRAMDLVREFGGQEIKFPAQEGNDTWAALVEVIGEAATRKLAAVFGGGQAPPVYI	-1.17
HMSEIKDRLREARRNKGLSQAGLSKLLGVSQASIAAIESGRNKRPTNLVSIAKALDVSPYWLETGK	-0.229
HMLPGWMETKFTANVSENTKNRTLEEHVLKMLNNKESAAEFIIFLHEKMMSVSGQVFQLDSR	-0.013
HMAQLPADMSRVKSADVSDAQLREFVQKAQASGQTETQLFREFSRRGMPTNEINILRSRMVGLQNN	0.152
HMSLMLYVEDVDTAFKKAIELGATEIRPVHDQFYGDRAGTLQDPFGHIWIIGTHKEDVSDEELNNRIGNI	0.104
HMHANSDVEQLMQMGIQRLNFQRYSDALLIFNQIIENFPDYAEAWNKRATLHYLLGNLDKSIADIEQTLE	-2.45
HMLSTGQLIRYYRKRAGMTQAELAEEVEMSEPGIRNYELGNRTPSKAQLSAIARGLGIEPEALI	-0.63
HMPIKYTHKGYTINVSRSKMNGTTFVKVVDPKGQVIQQSQDNRIQDVNQLVTTMKQYIDTLKPS	-0.274
HMGGYLIGDVAQMVGLSRDALRFYEKKGIIRADKKENGYRYYSEDDIYRLMYILYHRKMNTSLEEIGGLMS	-0.722
HMLGDAWSMLILRDAHSGFSRFDQFRKSLGIAPTMLTKRLSVLVDEGLLEKRQYSEHPPREEYVLTQAGQD	-0.0775
HMNQEFRMPNAIKGVELSEENKQQLTQGEKVFLEGMTSAKGSLFDAYVYIDQEKKTLAFDFPEK	0.0813
HMTKPTLMEVEIKGAIQNPGVYTLKRNSSISKLIKMSGPLLENADTSSISFTHILQDKDVVVIPEIK	-0.194
HMSDAVQLGLRLRAARERRGLSQQAVADALGLPRTAVTNMESGNRAVSTLELTKLAALYGQSTAFFLSP	-1.19
HMRKIFPFNPNFITDQRGYFLGMSTSEIDRLHHFRAANKWIQSAQEFQVVTKVSNAWLSEFSPYFNFP	-3.87
HMIVAHEINRHLGESDQPVEIPDNRREGAVAELLKTFNNDDAFREMDDGKYEVALDGEKVREAARSLLA	0.0479
HMGAEIRDKVRAALAGLNPRAAEIFVMRYFDGYGNREIARLLNTSWSTIAVTLHRTRAKLQKELK	-0.0467
HMFVTFFHELKSAGVPVSLREYLTLMEAMDRDLASRRVEEFYYLARTALVKDERNLDKFDRVFGHVFKGL	-4.08
HMVTTADIILEFYSRNPNATLTQAAQHVARATGTTYSRQAISAQLKRLEVAGLVERNGHVTV	-0.226

Sequence	soluble fraction (log2)
HMDGIIIPDVSGKSYAEAVATLNEKGFKVEKGEDAGSSLAKDLVSYTNPAAGNRAKSGATISVFVSTGANA	0.407
HMEDQFWQNRAEMALASARRAGRIVTYAEMADAADIPAPQRIHKLTLWLEATMRQDHASGQPLRAALV	0.0883
HMLLQTRQRHEALAALGYFKGDVAAAWGPASEEALRAAQAAFGITVDGKWGPQTEDAIQGALQV	-0.357
HMNDTNEEAVLSIILKNPQATQGAIAKEVGASLSTVKRIMRNLQKSGKLRREGTNRNGSWVVTGQK	-0.289
HMSFPDTYFKGNKVIGLSYNDLKKFLNNAGYSKFDEEVEEWGEKRVSIEDDMVDFYLEDDKVVSI	-0.361
HMKVVEKHIVPQIQNPIRLQEYASSIFKTITTRSGIKKAIKKQLILLNRKPANTGDWIKEGQLLELLAEE	-2.53
HMFGEKEFYQWIGKTAGEKFSGLPAAVIKSLYKYWREYNLSEEDIMGFIRQTELLPKRTPLDVELFFEK	-0.857
HMEAAETAVVTGTIVNIRSGPTLDFEAFAQVKQGDRLPVLDKFYNWYYVKLPSGVNGWISGQLVRIEQ	-2.86
HMKIQTYEDFRNAYPDIQGSLFGSAERYKTDLDWGDVAAKYDADEELKNVRNIFQLVRRYEQKYS	0.612
HMTKGDRIKARREELGLTQTDLAEAISSTKQNIYKYENNIISNIPSDKVEAIAEVLKISPAYLMGWGDE	-0.0377
HMRYVVQVATFSSKNNAIRAADDLAGFVVVSNGYYRVRTGPYADRGEANAALAKARKAGYTDAFVDTS	-2.19
HMSKDKEKRTREHVLGILKKYDKVMTDKAFTVFKKMIKDESILEMELIKLINFIGERKEIRSKDVLAVVTE	-0.504
HMEDGRLPPPGTVLRREYKGRAVFVRVLPKGFEFEGEVYRSLSAIAAKVTGSHWNGFRFFGLHE	-3.01
HMGQKMLTIELQEKVNKMPDNLASYDLKLSADGMSLIYKYSLKSERTGITALLQELKNAGLVMRDLKTEQ	-0.641
HMELPSDEHLDDISHLARIGHKKGLQEKIIQLEQQGLASAEFIQQLKTLTNNFQFEKIIQWVDSEL	-0.055
HMEDDIRSSIRTLDQFISKNQITLSKDVKNYILQLLSNDRMVTINELEKIKIYYDSNENIDLDTVKILLN	-0.796
HMLRMTRNRQKLVEVLMESGRPLSADEIREAAGFASTDLVTVYRNLEAFQSAGLLQRIPLENGSQLFELT	-0.46
HMSNTVEDLIDDIGTVTKDSKDKIDAARKAYDGLTEDQKKLVPDSVLKTLTDAEAAYAKLTK	0.567
HMTGIKISVDRLQIGNYVKLPLNWKDHPFLFSSFAIKSQEEIDLIRRLGLKQVIMFPDKSSMPPKPV	-1.55
HMAGFGDSLEKMSDAVEALKLLMSTEDARNDQNIQKIARELKDVFNKYRTHLRKSYPDQYDRIKSTL	-0.742
HMEISLEAKMAEVREQVRGLAGINFRTLLEMQASRSNIIVTFLAILELMKIGAIQIRQEEIFGEIIIDSRD	-0.104
HMVQVHEWTNKAGRTIKAKFVRGDAQSVTIFLGGRNFVLKIADLSEESQALARKLSAPPPPP	-2.52
HMYSNDEIVNYLKNYIFDNFNLNELSDEELEEKIAELVQQQFAGQLLSLDEKVKLVNQVYSSIR	-0.0578
HMVVADFQNYTVKPKENLYSLTKTSGLSQEELVALNPELKNGVQEGMVIKLPAAVKLMAQPE	0.201
HMKQNVEAVIKERAIEKARAQVKAVSTHMALEAQSLSKEQLEFEIERIAAQIIDKMPSDFWND	-1.28
HMPDKIDSAAQGILDKLIRNDGFMAVTDKSPPEAIYKLFGVSKKVFKQAIGSLYKNRLITIEDAGLRIIPQ	-0.481
HMDIKEIIKNRRIELGLTLKEVATAVGVSEGTVSRWESGNITNMKRNKIAALAKTLQIPPTTI	-0.618
